Laboratory results reported in PMC3317646, “Interaction of Chandipura Virus N and P Proteins: Identification of Two Mutually Exclusive Domains of N Involved in Interaction with P” (PLoS ONE, 2012).
Where two headings read alike, the source gives them in different places.

B1: Chandipura virus phosphoprotein (P), wild-type, untagged, bacterially expressed (natural protein)
chain: MEDSQLYQALKNYPKLQDTLDSIENLEDDTKSEPSECGSPTERGIPSYYLAEELDECEEEDSEEDDDNLPTEIPDPPTVDMLEAIMEDEIDDTAYQVHFEAKQTWKPVIETGGNERGKFTLSVPQNLSALQLLQWETGIHALAERLGGCRLLQISTRGTRDGIEFTVRETPCVSPASDPIPSTSRSSSIASNVSTRQTESPGSKSNTSLGIPEAPANLIDMGAIDKEFILAAISPSDPPYKNTLRNLFGSGDSFEQYNQTGIYSLKELVIAGLKRKGIYNRIRIRCHLEPQFN
notes: Chandipura virus phosphoprotein P, wild-type (pET3a-P); also called CHPV P; pET3a-P; source: bacterially expressed, purified (Q-Sepharose anion exchange)
B2: N(22–422), bacterially expressed (domain or fragment)
chain: EDPVEFPGAFFTPNAKKPTVYIKKETDLSLLRSHVYDGIKDGSVTVSQINSYLYMVLKDIREKPDKNWTSFGVELGKKNEPMGIFDLLNVEDVKGKELDKKGQDTRLPGDDLWLPTLIFGLYRVSRATQVEYKKTLMTNLYAQCKLRTKDAEEIVDETAEFFNAWANDSNFTKIVAAVDMYFHHFKKSDHAPIRFGTIVSRFKDCAALSTLSHLQKVTGLPIEEVFTWVFNKSVQDDLLRMMTPGQEIDQADSYMPYLIDMGLSTKSPYSSTKNPSFHFWGQLTAFLVKSARAKNALVPVDIAYHELTTAALLFAYAIGRSSELEQRFVLNGKKFTKEKDSREDNDTTPPSERNVVVWLAWWEDIKHEITPDMKAFAKRAVERVGDIRVNSVAEYARKLFA
notes: source: E. coli BL21(DE3) or BL21(DE3)pLysS, purified (anion exchange, MonoQ 5/50 GL)
B3: Chandipura virus nucleocapsid protein (N), wild-type, untagged, bacterially expressed (natural protein)
chain: MSSQVFCISTGQTVSVCLPANEDPVEFPGAFFTPNAKKPTVYIKKETDLSLLRSHVYDGIKDGSVTVSQINSYLYMVLKDIREKPDKNWTSFGVELGKKNEPMGIFDLLNVEDVKGKELDKKGQDTRLPGDDLWLPTLIFGLYRVSRATQVEYKKTLMTNLYAQCKLRTKDAEEIVDETAEFFNAWANDSNFTKIVAAVDMYFHHFKKSDHAPIRFGTIVSRFKDCAALSTLSHLQKVTGLPIEEVFTWVFNKSVQDDLLRMMTPGQEIDQADSYMPYLIDMGLSTKSPYSSTKNPSFHFWGQLTAFLVKSARAKNALVPVDIAYHELTTAALLFAYAIGRSSELEQRFVLNGKKFTKEKDSREDNDTTPPSERNVVVWLAWWEDIKHEITPDMKAFAKRAVERVGDIRVNSVAEYARKLFA
notes: Chandipura virus nucleocapsid protein N, full-length untagged (pET3a-NC); Oligomeric (nucleocapsid-like rings) as purified; monomeric after 1% DOC; also called CHPV N; wild-type N
B4: N(1–390), bacterially expressed (domain or fragment)
chain: MSSQVFCISTGQTVSVCLPANEDPVEFPGAFFTPNAKKPTVYIKKETDLSLLRSHVYDGIKDGSVTVSQINSYLYMVLKDIREKPDKNWTSFGVELGKKNEPMGIFDLLNVEDVKGKELDKKGQDTRLPGDDLWLPTLIFGLYRVSRATQVEYKKTLMTNLYAQCKLRTKDAEEIVDETAEFFNAWANDSNFTKIVAAVDMYFHHFKKSDHAPIRFGTIVSRFKDCAALSTLSHLQKVTGLPIEEVFTWVFNKSVQDDLLRMMTPGQEIDQADSYMPYLIDMGLSTKSPYSSTKNPSFHFWGQLTAFLVKSARAKNALVPVDIAYHELTTAALLFAYAIGRSSELEQRFVLNGKKFTKEKDSREDNDTTPPSERNVVVWLAWWEDIKHEI
notes: Chandipura virus nucleocapsid protein N, residues 1-390; source: E. coli BL21(DE3) or BL21(DE3)pLysS, purified (anion exchange, MonoQ 5/50 GL)
B5: N(1/180–265/422), bacterially expressed (domain or fragment)
chain: MSSQVFCISTGQTVSVCLPANEDPVEFPGAFFTPNAKKPTVYIKKETDLSLLRSHVYDGIKDGSVTVSQINSYLYMVLKDIREKPDKNWTSFGVELGKKNEPMGIFDLLNVEDVKGKELDKKGQDTRLPGDDLWLPTLIFGLYRVSRATQVEYKKTLMTNLYAQCKLRTKDAEEIVDETAPGQEIDQADSYMPYLIDMGLSTKSPYSSTKNPSFHFWGQLTAFLVKSARAKNALVPVDIAYHELTTAALLFAYAIGRSSELEQRFVLNGKKFTKEKDSREDNDTTPPSERNVVVWLAWWEDIKHEITPDMKAFAKRAVERVGDIRVNSVAEYARKLFA
notes: also called middle deletant; source: E. coli BL21(DE3) or BL21(DE3)pLysS, purified (anion exchange, MonoQ 5/50 GL)
B6: N(1–220), bacterially expressed (domain or fragment)
chain: MSSQVFCISTGQTVSVCLPANEDPVEFPGAFFTPNAKKPTVYIKKETDLSLLRSHVYDGIKDGSVTVSQINSYLYMVLKDIREKPDKNWTSFGVELGKKNEPMGIFDLLNVEDVKGKELDKKGQDTRLPGDDLWLPTLIFGLYRVSRATQVEYKKTLMTNLYAQCKLRTKDAEEIVDETAEFFNAWANDSNFTKIVAAVDMYFHHFKKSDHAPIRFGTIV
notes: Chandipura virus nucleocapsid protein N, residues 1-220; source: E. coli BL21(DE3) or BL21(DE3)pLysS, purified (anion exchange, MonoQ 5/50 GL)
B7: N(1–320), bacterially expressed (domain or fragment)
chain: MSSQVFCISTGQTVSVCLPANEDPVEFPGAFFTPNAKKPTVYIKKETDLSLLRSHVYDGIKDGSVTVSQINSYLYMVLKDIREKPDKNWTSFGVELGKKNEPMGIFDLLNVEDVKGKELDKKGQDTRLPGDDLWLPTLIFGLYRVSRATQVEYKKTLMTNLYAQCKLRTKDAEEIVDETAEFFNAWANDSNFTKIVAAVDMYFHHFKKSDHAPIRFGTIVSRFKDCAALSTLSHLQKVTGLPIEEVFTWVFNKSVQDDLLRMMTPGQEIDQADSYMPYLIDMGLSTKSPYSSTKNPSFHFWGQLTAFLVKSARAKNALVP
notes: Chandipura virus nucleocapsid protein N, residues 1-320; also called N(1–320)^0 (monomer after DOC treatment); source: E. coli BL21(DE3) or BL21(DE3)pLysS, purified (anion exchange, MonoQ 5/50 GL)
B8: N(1–47), bacterially expressed (domain or fragment)
chain: MSSQVFCISTGQTVSVCLPANEDPVEFPGAFFTPNAKKPTVYIKKET
notes: Chandipura virus nucleocapsid protein N, residues 1-47; source: E. coli BL21(DE3) or BL21(DE3)pLysS, purified (anion exchange, MonoQ 5/50 GL)

Columns and labels:
[1] = target: the molecule itself; test: SEC; each purified protein alone on Superdex-200 / S-200 (10/300), 100 mM NaCl TET buffer; oligomerization status from the elution volume
[2] = target: the molecule itself; test: as above; remark: listed apart in the source
[3] = target: B1; test: SEC; equimolar N (or N(1–320)) and P incubated 30 min at 4°C in 100 mM NaCl TET buffer, no DOC treatment (N oligomeric); S-200 (10/300); ratio by densitometry of bands; settings: both partners purified
[4] = target: T1, N-terminal six histidine tagged P protein of Chandipura virus (His-P) (Chandipura virus, UniProt P16380 1-293); test: pull-down; His-tag co-elution after 1% DOC treatment of the N variants and dialysis against the binding buffer in presence of His-P (N variants monomeric); Ni-NTA agarose, eluted with 250 mM imidazole; settings: both partners purified
T1 construct: Chandipura virus phosphoprotein P, full length (pET20b-P); pET20b usually adds a C-terminal His tag (surmise); also called 6×His-P; pET20b-P; source: bacterially expressed, purified (Ni-NTA agarose); not shown: His6, N-terminal, kept
T1 sequence: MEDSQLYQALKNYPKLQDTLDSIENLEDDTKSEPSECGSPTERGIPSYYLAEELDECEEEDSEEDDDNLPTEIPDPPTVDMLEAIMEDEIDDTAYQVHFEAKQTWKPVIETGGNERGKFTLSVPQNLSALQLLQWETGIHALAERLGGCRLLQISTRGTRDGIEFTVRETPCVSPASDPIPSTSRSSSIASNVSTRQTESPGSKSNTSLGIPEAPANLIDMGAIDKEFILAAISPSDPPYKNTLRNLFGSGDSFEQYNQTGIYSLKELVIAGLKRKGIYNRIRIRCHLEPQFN

[5] = target: B1; test: SEC; N (or N(1–320)) pre-treated with 1% DOC for 30 min, then DOC removed by overnight dialysis against 100 mM NaCl TET buffer with or without equimolar P; S-200 (10/300); ratio by densitometry of bands; settings: both partners purified

Binder | stoichiometry N [1] | stoichiometry N [2] | also measured
B1 | 2 | – | –
B2 | – | 8 | –
B3 | ~10 | – | stoichiometry N [3]: 2 N:P (molar ratio)
B4 | – | 8 | –
B5 | 2 | 3 | –
B6 | – | 4 | binding result [4]: binds
B7 | – | 8 | stoichiometry N [5]: 1 N(1–320):P
B8 | – | 3 | –
